B1: N-acetyl-(R)-β-amino acid acylase: enzyme purified from Burkholderia sp. AJ110349, subunit about 84 kDa, SEQ. ID. NO. 8 (protein)
chain: MITITGYSDVLSAGPGETVEFKVSSKSPHPFTAELVRVIHADPNPAGPGMRFEPLGQVFSGTFASFDKPLLPGSFARVSGVPAAGSAAGLVAGARIRPTALARGDQCVMSQWNTARHAGFALLVSERGLELRLGAGTGEPPVCVLCAARLEVRWYDVWFAIDTASNRIEVGVTEVDGSVAAPVRHRTLQMLDARWRAPHSDDAADLLIGALEDGAGRRAHFNGQIEAPFVADALPSPATPAATVEYAAPRASDFSTDALYAAWDFARGIDTLKIADTTPHARHGTLQNLPTRAVRSSAWNGRERCWRTAPAHYAAIHFHDDDLHDAGWSTDFAFTVPATLKSGAYAMRLSVDGATDYLPFYVRPELGRPGAPLVFVAATYTYQAYANYARGNFDAALRDKVGRWGAYPHNPDDHPEVGLATYNLHSDGSGVMFSSRLRPMLTMRPGFLTFDDSRGSGCRHYIADSHLLDWLEHEGFSFDVVTDDDLERFGAALLEPYAAVLTGTHPEYHTAATLDALAGYKRSGGNLAYLGGNGFYWRVGRSERVPGALEVRRTEGGVRAWAAEAGEYFHALDGEYGGLWRSSARTPQQLVGVGFSSQGPFEGSHYRVLDAARSQPGGSLLKDIAGPLFGGYGLSGGGAAGFELDSTEAADGTPANVIILARSESHSAAFGPALDALLSHTATRARKTPDTLIRSEIVYYETGYGGAVFSVGSITFCGALSHNDYRNDVSTLLRNVLIRFSRDRGAQAHAVPAVAHTEVD
modifications: Burkholderia sp. AJ110349
B2: N-acetyl-(S)-β-amino acid acylase: enzyme purified from Burkholderia sp. AJ110349, subunit about 41 kDa, SEQ. ID. NO. 10 (protein)
chain: MDFCQMNDLASRKGRIQTVLGLIDPHELGPALMHEHLLIDLVPPKLAEDADHDQTEIDLCNCWKINYGQVPSLKNYRLDQKDVAVEELLEMRAAGGSAIVDLTTGGLKPDPQGLAQISREAGVHVVMGCGHYVHEYQDAANAHRSVDDFASEMIGQITEGAWGTQVRAGIIGEIGCQSPWTEQEKRVVRGALIAQQETGAALNIHPGRHAEQPQEVIDTIKSLGYPVERVIISHIDRTIFDDTRLLRLADSGCVIELDLFGWEQSAYPMSDIDMPNDGARLRMVRTLLDHGHAERVLISHDICTRTRLGRYGGHGYQHIFANVVPRMLRRDFTQDEIDTLLTRNPRRLLTFV
modifications: Burkholderia sp.AJ110349
notes: enzyme purified from Burkholderia sp; ID; NO; 10

Test: N-acetyl-β-amino acid acylase activity and optical selectivity of purified enzymes and cell-free extracts
Assay type: biochemical
Conditions: 30° C.; for Specific activity: purified enzyme after Mono-Q, 10 mM N acetyl-(R,S)-β-Phe, 50 mM Tris-HCl (pH 7.6); for Optical specificity (β-Phe enantiomer produced): purified enzyme, N-acetyl-(R,S)-β-Phe, 30 minutes
Protocol: 10 mM N acetyl-(R,S)-β-Phe, 50 mM Tris-HCl (pH 7.6), and a reaction solution containing a suitable enzyme sample were left standing from 15 minutes to 2 hours at 30° C., and then processed by boiling for 5 minutes to stop the reaction. The reaction solution was centrifuged. The supernatant was suitably diluted and then analyzed by HPLC. Acylase activity that produced 1 μmol of (R)-β-Phe or (S)-β-Phe per minute under these standard reaction conditions was defined as one unit. Activity producing (R)-β-Phe from N-acetyl-(R,S)-β-Phe will be referred to as N-acetyl-(R)-β-Phe acylase activity and activity producing (S)-β-Phe will be referred to as N-acetyl-(S)-β-Phe acylase activity hereinafter.
(R)-β-Phe, (S)-β-Phe, N-acetyl-(R)-β-Phe, and N-acetyl-(S)-β-Phe were quantitatively analyzed. The column employed was an Inertsil ODS3 (0.46 cm in diameter, 5 cm) made by GL Science and a Chiralpak WH (0.46 cm in diameter, 25 cm) made by Daisel Chemical Industries, arranged consecutively in that order. The mobile phase was 0.25 mM CuSO4, 2 percent (v/v) acetonitrile. The flow rate was 1.5 mL/minute. The column temperature was 50° C. Detection was conducted with a UV detector at 210 nm. In this analysis, the above four compounds eluted out at different elution times. The elution sequence, in order of elution speed, was (S)-β-Phe, (R)-β-Phe, N-acetyl-(R)-β-Phe, and N-acetyl-(S)-β-Phe. The quantities were calculated from the peak area values relative to various standard products.
An Inertsil Ph-3 (0.46 cm in diameter, 25 cm) column made by GL Science was employed. The mobile phase was 10 percent acetonitrile (adjusted to pH 3.0 with phosphoric acid). The temperature was 40° C. The flow rate was 1.0 mL/min. Detection was conducted under UV conditions of 210 nm and peak area values were calculated based on comparison with various standard racemic products.
Optical selectivity was measured using the purified enzymes as enzyme sources. Reactions were conducted under the above enzyme conditions for a period of 30 minutes. The quantity of enzyme added was 4.6 μg/mL (N-acetyl-(R)-β-amino acid acylase) or 3.1 μg/mL (N-acetyl-(S)-β-amino acid acylase).
The K83 strain obtained was precultured for 16 hours at 37° C. in LB medium containing 100 mg/L of ampicillin. A 1 mL quantity of the cultured bacterial cells was transferred to 50 mL of TB medium containing 100 mg/L of ampicillin and 1 mM of IPTG and cultured for 16 hours at 30° C. […] When the N-acetyl-β-amino acid acylase activity was measured under the separation conditions of N-acetyl-β-Phe and β-Phe, a value of 2.3 U/mg was obtained.
JM109/ptrp4—3BR was cultured for 16 hours at 37° C. in LB medium containing 100 mg/L of ampicillin. […] The quantity of β-Phe produced was measured by HPLC. […]

Molecule	Specific activity	Optical specificity (β-Phe enantiomer produced)
B1	12.4 U/mg	only the production of (R)-β-Phe was observed
B2	13.1 U/mg	Only the production of (S)-β-Phe was observed

Reference: patent US7858348B2, “N-acetyl-(R,S)-beta-amino acid acylase gene” (Ajinomoto Co., Inc., priority 2006, dated 2010)
